Laboratory results from the supplement of paper PMC9732359.
± gives the uncertainty stated by the source.

Assay: protein stability index of a GFP-peptide fusion (yeast GPS) (PSI 1-4); higher = more stable; sorted into four equal gates, so the index is relative within each strain
Procedure, shortened: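 Tiled 17-residue yeast protein peptides were fused downstream of GFP in a plasmid that also expresses Cherry, and the pooled library was carried in yeast. Mid-log cultures in leucine-free medium were sorted into four equal gates by GFP/Cherry fluorescence ratio, and plasmids from each gate were PCR-amplified and Illumina-sequenced, with reads assigned to strains by barcodes. The protein stability index for each peptide was each gate's read frequency times its gate number, summed.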

## AADNLGSYGSLLRFNGV [PRE4]
doa10∆
  protein stability index: 3.03 ± 0.088
pdr5∆
  protein stability index: 3.15 ± 0.078
san1∆
  protein stability index: 3.25 ± 0.12
ubr1∆
  protein stability index: 3.04 ± 0.21

## AADVSAVDAKQLAQIRQ [YML103C/NUP188]
doa10∆
  protein stability index: 2.25 ± 0.071
pdr5∆
  protein stability index: 2.94 ± 0.073
san1∆
  protein stability index: 3.25 ± 0.072
ubr1∆
  protein stability index: 2.5 ± 0.057

## AAELQEKPLTPLKYTKL [SNF6]
doa10∆
  protein stability index: 2.94 ± 0.13
pdr5∆
  protein stability index: 3.02 ± 0.13
san1∆
  protein stability index: 2.39 ± 0.17
ubr1∆
  protein stability index: 2.78 ± 0.13

## AAGYGKILGKGRIPNVP [RPL28]
doa10∆
  protein stability index: 3.46 ± 0.087
pdr5∆
  protein stability index: 3.2 ± 0.075
san1∆
  protein stability index: 3.46 ± 0.066
ubr1∆
  protein stability index: 3.48 ± 0.05

## AAKPDNLANFSNEVAMN [SWP82]
doa10∆
  protein stability index: 3.32 ± 0.11
pdr5∆
  protein stability index: 3.22 ± 0.088
san1∆
  protein stability index: 3.15 ± 0.056
ubr1∆
  protein stability index: 3.23 ± 0.067

## AAMVIMHLMALHIHGSS [COB]
doa10∆
  protein stability index: 1.9 ± 0.051
pdr5∆
  protein stability index: 1.48 ± 0.059
san1∆
  protein stability index: 1.35 ± 0.093
ubr1∆
  protein stability index: 1.35 ± 0.044

## AAPSGNYKQLTLVGGGA [RRP43]
doa10∆
  protein stability index: 1.36 ± 0.093
pdr5∆
  protein stability index: 2.33 ± 0.07
san1∆
  protein stability index: 2.23 ± 0.13
ubr1∆
  protein stability index: 2.5 ± 0.079

## AAQDVWNRADNHFKDTY [FAS1]
doa10∆
  protein stability index: 3.05 ± 0.18
pdr5∆
  protein stability index: 3.14 ± 0.1
san1∆
  protein stability index: 3.19 ± 0.11
ubr1∆
  protein stability index: 3.53 ± 0.13

## AARHKQHEQGTFEKHDR [RRI2]
doa10∆
  protein stability index: 3.02 ± 0.067
pdr5∆
  protein stability index: 3.04 ± 0.23
ubr1∆
  protein stability index: 2.96 ± 0.14

## AATMTSAPPPALPHVEI [RGR1]
doa10∆
  protein stability index: 2.52 ± 0.072
pdr5∆
  protein stability index: 2.83 ± 0.083
san1∆
  protein stability index: 2.49 ± 0.079
ubr1∆
  protein stability index: 2.3 ± 0.055

## ACHVEVPYVLMGQIATF [COB]
doa10∆
  protein stability index: 2.08 ± 0.092
pdr5∆
  protein stability index: 1.98 ± 0.088
san1∆
  protein stability index: 1.87 ± 0.12
ubr1∆
  protein stability index: 1.94 ± 0.066

## ADDVFTGTGLQDENIGL [RPC31]
doa10∆
  protein stability index: 3.46 ± 0.11
pdr5∆
  protein stability index: 3.44 ± 0.096
san1∆
  protein stability index: 3.21 ± 0.057
ubr1∆
  protein stability index: 3.33 ± 0.07

## ADKVYTKENLEVSGENV [QCR2]
doa10∆
  protein stability index: 3.44 ± 0.1
pdr5∆
  protein stability index: 3.59 ± 0.072
san1∆
  protein stability index: 3.2 ± 0.092
ubr1∆
  protein stability index: 3.28 ± 0.052

## ADLSSSEEEEDEEENGS [SSN2]
doa10∆
  protein stability index: 3.36 ± 0.087
pdr5∆
  protein stability index: 3.51 ± 0.12
san1∆
  protein stability index: 3.59 ± 0.084
ubr1∆
  protein stability index: 3.29 ± 0.064

## ADNDGPRINNISAEDRA [SNF2]
doa10∆
  protein stability index: 2.79 ± 0.15
pdr5∆
  protein stability index: 3.16 ± 0.18
san1∆
  protein stability index: 2.9 ± 0.1
ubr1∆
  protein stability index: 1.52 ± 0.24

## ADTGRDDTKETVYISSI [RPN11]
doa10∆
  protein stability index: 3.12 ± 0.09
pdr5∆
  protein stability index: 3.28 ± 0.1
san1∆
  protein stability index: 3.01 ± 0.073
ubr1∆
  protein stability index: 3.16 ± 0.053

## ADTIDHDELIDSIPRDV [YGL172W/NUP49]
doa10∆
  protein stability index: 2.95 ± 0.098
pdr5∆
  protein stability index: 3.24 ± 0.085
san1∆
  protein stability index: 3.07 ± 0.056
ubr1∆
  protein stability index: 2.88 ± 0.075

## ADVKGVCTEAGMYALRE [RPT6]
doa10∆
  protein stability index: 1.82 ± 0.08
pdr5∆
  protein stability index: 2.23 ± 0.094
san1∆
  protein stability index: 1.97 ± 0.12
ubr1∆
  protein stability index: 1.27 ± 0.27

## ADVLAMAKVEVNLAAIP [RIP1]
doa10∆
  protein stability index: 1.84 ± 0.12
pdr5∆
  protein stability index: 1.99 ± 0.13
san1∆
  protein stability index: 1.82 ± 0.22
ubr1∆
  protein stability index: 2.05 ± 0.077

## ADVYAKALEGKDLKEIL [RPP1B]
doa10∆
  protein stability index: 3.45 ± 0.22
san1∆
  protein stability index: 3.51 ± 0.14
ubr1∆
  protein stability index: 3.36 ± 0.2

## AEASFTFGTKHAADSQN [YLR335W/NUP2]
doa10∆
  protein stability index: 3.27 ± 0.14
pdr5∆
  protein stability index: 3.01 ± 0.13
san1∆
  protein stability index: 3.03 ± 0.092
ubr1∆
  protein stability index: 2.67 ± 0.091

## AEEEEESDDDMGFGLFD [RPP0]
doa10∆
  protein stability index: 3.36 ± 0.09
pdr5∆
  protein stability index: 2.96 ± 0.12
san1∆
  protein stability index: 3.24 ± 0.046
ubr1∆
  protein stability index: 3.25 ± 0.065

## AEHKYMPYTINELLEMV [BRR2]
doa10∆
  protein stability index: 2.92 ± 0.083
pdr5∆
  protein stability index: 3.04 ± 0.092
san1∆
  protein stability index: 2.53 ± 0.068
ubr1∆
  protein stability index: 2.65 ± 0.043

## AEKELEAEIECFDSTTG [RRP40]
doa10∆
  protein stability index: 3.21 ± 0.17
pdr5∆
  protein stability index: 3.06 ± 0.14
san1∆
  protein stability index: 3.05 ± 0.1
ubr1∆
  protein stability index: 2.66 ± 0.14

## AEKLVPLPICHANSVVA [YML031W/NDC1]
doa10∆
  protein stability index: 1.68 ± 0.2
pdr5∆
  protein stability index: 1.34 ± 0.091
san1∆
  protein stability index: 1.61 ± 0.2
ubr1∆
  protein stability index: 1.42 ± 0.16

## AEKSYLYDSLASTPSIR [RRP42]
doa10∆
  protein stability index: 2.57 ± 0.15
pdr5∆
  protein stability index: 2.33 ± 0.1
san1∆
  protein stability index: 2.46 ± 0.19
ubr1∆
  protein stability index: 3.2 ± 0.11
